Measurements taken from patent publication US9346871B2, “Engineered CXCL12 alpha locked dimer polypeptide” (The Medical College of Wisconsin, priority 2008, dated 2016).
Where a chain is given by its changes, count along the chain named. Names may count otherwise. “Also recorded” adds a separate entry of the source. Like-named read-outs stand apart in the source and are kept apart here. Blank lines part the entries; values can stand above or below the molecule they belong to.

Experiments:
[1] = target: T1, CXCL12-α (Homo sapiens, UniProt P48061); experiment: Binding of CXCR4 N-terminal p38 peptides to CXCL12-α; settings: read-out: apparent Kd
T1 construct: made in house; host or cells: E. coli
T1 sequence (P48061 22-89 limits assumed): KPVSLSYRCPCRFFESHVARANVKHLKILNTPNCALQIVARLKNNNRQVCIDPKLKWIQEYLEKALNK

[2] = Pulsed-field gradient NMR translational diffusion, CXCL12-α monomer-dimer equilibrium; assay type: physicochemical; settings: 10, 50 and 150 μM protein
Description: FIG. 1. […] The lines connecting the cysteines show where the intra- and intermolecular disulfide bonds are. […] Diffusion coefficients (Ds) of wild-type CXCL12 (black circles) in 20 mM sodium phosphate at pH 7.4 plotted versus chemokine concentration. […] D) N-terminal peptides corresponding to the first thirty-eight amino acids of CXCR4 are illustrated.

[3] = test system: HIV-1; settings: compared with wild-type chemokine
Source text: Certain strains of HIV (X4 or dual tropic) utilize CXCR4 as a co-receptor, and this interaction is critical for fusion of the viral and T cell membranes in the process of HIV entry.

[4] = test system: THP-1 cells; experiment: Transwell chemotaxis assay of THP-1 cells; assay type: cell-based
Source text: FIG. 5. […] C) Schematic illustration of the bell-shaped profile for CXCL12-α-mediated chemotaxis arising from changes in relative concentrations of chemokine monomer and dimer.
(§1) The Protein Data Bank (PDB), under accession numbers 2K01, 2K04, 2K03 and 2K05 contain coordinates for these structural models. Restraints employed for structure determination have been deposited in the Biological Magnetic Resonance Bank, accession numbers 15633, 15636, 15635 and 15637. […] THP-1 cells are a CXCR4-expressing monocyte leukemia cell line and were obtained from ATCC.

[5] = Heparin binding
Source text: Further, in addition to binding CXCR4, CXCL12 also binds to heparin found in the extracellular matrix on cell surfaces. The inventors have shown that the CXCL12α2 locked dimer of the present invention also binds heparin. Amino acid substitutions in CXCL12, including K24S, K27S, or K24S/K27S can prevent heparin binding and increase the half-life of CXCL12 in vivo; therefore, similar mutations in CXCL12α2 would likely prevent heparin binding and increase the in vivo half-life of the dimer.

[6] = target: T2, CXCR4 (Homo sapiens, UniProt P61073); experiment: Ca2+-flux assay of CXCR4 activation in THP-1 cells; assay type: cell-based
T2 construct: a Ca^2+-flux assay on CXCR4-expressing THP-1 cells; host or cells: THP-1
T2 sequence (P61073 whole entry): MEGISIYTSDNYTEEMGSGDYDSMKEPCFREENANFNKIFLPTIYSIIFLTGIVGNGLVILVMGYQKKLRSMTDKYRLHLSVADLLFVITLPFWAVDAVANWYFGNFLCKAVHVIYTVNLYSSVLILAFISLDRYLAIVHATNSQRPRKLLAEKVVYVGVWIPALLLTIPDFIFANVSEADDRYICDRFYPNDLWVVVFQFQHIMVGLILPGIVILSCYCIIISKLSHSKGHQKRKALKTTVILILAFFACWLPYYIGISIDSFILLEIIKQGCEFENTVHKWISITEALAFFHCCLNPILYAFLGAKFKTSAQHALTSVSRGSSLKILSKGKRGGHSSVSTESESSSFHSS
Source text: as §1
The inventors monitored activation of CXCR4 using THP-1 cells and a similar Ca^2+-flux assay.

[7] = Ca2+-flux, CXCR4-expressing THP-1 cells

Kd [1]: 200 ± 200 nM
Molecule: CC[C@H](C)[C@H](NC(=O)CNC(=O)[C@H](CCC(=O)O)NC(=O)[C@H](CCSC)NC(=O)[C@H](CO)NC(=O)CN)C(=O)N[C@@H](CO)C(=O)N[C@H](C(=O)N[C@@H](Cc1ccc(OS(=O)(=O)O)cc1)C(=O)N[C@H](C(=O)N[C@@H](CO)C(=O)N[C@@H](CC(=O)O)C(=O)N[C@@H](CC(N)=O)C(=O)N[C@@H](Cc1ccc(OS(=O)(=O)O)cc1)C(=O)N[C@H](C(=O)N[C@@H](CCC(=O)O)C(=O)N[C@@H](CCC(=O)O)C(=O)N[C@@H](CCSC)C(=O)NCC(=O)N[C@@H](CO)C(=O)NCC(=O)N[C@@H](CC(=O)O)C(=O)N[C@@H](Cc1ccc(OS(=O)(=O)O)cc1)C(=O)N[C@@H](CC(=O)O)C(=O)N[C@@H](CO)C(=O)N[C@@H](CCSC)C(=O)N[C@@H](CCCCN)C(=O)N[C@@H](CCC(=O)O)C(=O)N1CCC[C@H]1C(=O)N[C@@H](C)C(=O)N[C@@H](Cc1ccccc1)C(=O)N[C@@H](CCCNC(=N)N)C(=O)N[C@@H](CCC(=O)O)C(=O)N[C@@H](CCC(=O)O)C(=O)N[C@@H](CC(N)=O)C(=O)N[C@@H](C)C(=O)N[C@@H](CC(N)=O)C(=O)N[C@@H](Cc1ccccc1)C(=O)N[C@@H](CC(N)=O)C(=O)N[C@@H](CCCCN)C(=O)O)[C@@H](C)O)[C@@H](C)O)[C@@H](C)CC [p38-sY3]

EC50 [6, 7]: 654 nM
B2: R47E: CXCL12-α mutant, arginine 47 replaced by glutamic acid (protein)
chain: KPVSLSYRCPCRFFESHVARANVKHLKILNTPNCACQIVARLKNNNEQVCIDPKLKWIQEYLEKCLNK

EC50 [6, 7]: 4.3 ± 0.9 nM
B3: R41A: CXCL12-α mutant R41A (protein)
chain: B2 chain with R41A, E47R

EC50 [6, 7]: 5 ± 1.1 nM
B7: K64A: CXCL12-α mutant K64A (protein)
chain: B2 chain with E47R, K64A

EC50 [6, 7]: 8.6 ± 2.4 nM
B8: V49A: CXCL12-α mutant V49A (protein)
chain: B2 chain with E47R, V49A

EC50 [6, 7]: 14.1 nM
B9: R47A: CXCL12-α mutant R47A (protein)
chain: B2 chain with E47A

EC50 [6, 7]: 3.7 ± 0.8 nM
B10: E63A: CXCL12-α mutant E63A (protein)
chain: B2 chain with E47R, E63A

EC50 [6, 7]: 4.1 ± 0.1 nM
B11: E60A: CXCL12-α mutant E60A (protein)
chain: B2 chain with E47R, E60A

The remaining lines, values behind:

Molecule: CXCL12-α2: covalently locked dimer comprising two CXCL12 L36C/A65C sequences (SEQ ID NO: 1)
diffusion coefficient Ds [2]: 1.08-1.09 ×10^−6 cm^2s^−1 | predicted inhibition of HIV-1 entry into human T cells [3]: more effective at lower concentrations | chemotactic response [4]: failed to attract cells; also recorded: does not chemoattract THP-1 cells | heparin binding [5]: binds heparin | CXCR4 functional character ([6]; detection of secondary messenger calcium): partial CXCR4 agonist

B1: R20A: wild-type CXCL12-α with R20 replaced by alanine (protein)
chain: B2 chain with R20A, E47R
EC50 [6, 7]: 4.3 ± 0.6 nM | EC50, CXCR4 activation [6, 7]: no change in EC50

B4: K27A: CXCL12-α mutant, alanine at K27 (protein)
chain: B2 chain with K27A, E47R
EC50 [6, 7]: 10.1 nM

B5: V39A: CXCL12-α mutant V39A (protein)
chain: B2 chain with V39A, E47R
EC50 [6, 7]: 27.1 nM

B6: H25R: dimerization-impaired, preferentially monomeric CXCL12-α variant (protein)
chain: B2 chain with H25R, E47R
modifications: ends and bridges not checked
notes: dimerization-impaired, preferentially monomeric CXCL12-α variant
chemotactic response ([4]; listed as CXCL12-α (H25R)): induces chemotaxis over a broader range | chemotactic response ([4]; listed as CXCL12-α(H25R)): promotes cell migration much more strongly than the wild-type chemokine at higher concentrations | EC50 [6, 7]: 5.1 ± 0.9 nM

B12: K27E: CXCL12-α mutant, glutamic acid at K27 (protein)
chain: B2 chain with K27E, E47R
EC50 [6, 7]: 16.8 nM
